Test system: Escherichia coli TOP10
Experiment: shrunken log2 fold change of peptide-encoding DNA abundance (4.5 h post-induction vs induction); higher = less antimicrobial activity (less host growth inhibition)
Details: time post-induction: 4.5 h; library: site-saturation at positions 5, 18, 19, 20
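Further: peptides expressed intracellularly from a pBAD plasmid library in pooled LB shake-flask culture, induced with 0.3% L-arabinose, DNA abundance read by NGS, three biological replicates, DESeq2 with apeglm shrinkage.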

Sequence | shrunken log2 fold change
RRIRARPPRLPRPRPRPKFDPRP | 0.376
RRIRERPPRLPRPRPRPMSEPRP | 0.0552
RRIRWRPPRLPRPRPRPPHFPRP | 0.701
RRIRCRPPRLPRPRPRPNSEPRP | -0.398
RRIRHRPPRLPRPRPRPAPMPRP | 0.164
RRIRSRPPRLPRPRPRPVALPRP | -0.0772
RRIRFRPPRLPRPRPRPEKWPRP | 0.109
RRIRTRPPRLPRPRPRPESFPRP | -0.47
RRIRLRPPRLPRPRPRPSEIPRP | -0.397
RRIRHRPPRLPRPRPRPFYAPRP | -0.724
RRIRKRPPRLPRPRPRPINAPRP | 0.088
RRIRERPPRLPRPRPRPIASPRP | 0.129
RRIRLRPPRLPRPRPRPWSLPRP | -0.195
RRIRRRPPRLPRPRPRPMMGPRP | 0.235
RRIRIRPPRLPRPRPRPEKQPRP | 0.0192
RRIRPRPPRLPRPRPRPNFGPRP | 0.26
RRIRGRPPRLPRPRPRPVKVPRP | 0.425
RRIRHRPPRLPRPRPRPHECPRP | -0.0277
RRIRDRPPRLPRPRPRPHGYPRP | 0.0237
RRIRMRPPRLPRPRPRPHQSPRP | -0.318
RRIRDRPPRLPRPRPRPLFQPRP | 0.192
RRIRARPPRLPRPRPRPKHKPRP | 0.172
RRIRGRPPRLPRPRPRPIGYPRP | -0.017
RRIRHRPPRLPRPRPRPHVCPRP | 0.00854
RRIRTRPPRLPRPRPRPRVMPRP | 0.0867

Sequence | shrunken log2 fold change
RRIRMRPPRLPRPRPRPPMHPRP | 0.704
RRIRPRPPRLPRPRPRPRDIPRP | -0.191
RRIRNRPPRLPRPRPRPVCQPRP | -0.0808
RRIRFRPPRLPRPRPRPMEDPRP | -0.015
RRIRRRPPRLPRPRPRPCSQPRP | 0.0499
RRIRVRPPRLPRPRPRPIMIPRP | -1.08
RRIRSRPPRLPRPRPRPKHYPRP | -0.233
RRIRPRPPRLPRPRPRPMDKPRP | -0.0612
RRIRYRPPRLPRPRPRPCGIPRP | -0.00192
RRIRMRPPRLPRPRPRPVKKPRP | 0.0481
RRIRHRPPRLPRPRPRPHIIPRP | -0.192
RRIRMRPPRLPRPRPRPAEGPRP | 0.265
RRIRCRPPRLPRPRPRPPWFPRP | -0.00887
RRIRARPPRLPRPRPRPRYVPRP | -0.25
RRIRCRPPRLPRPRPRPYACPRP | -0.0609
RRIRDRPPRLPRPRPRPEQRPRP | 0.0765
RRIRSRPPRLPRPRPRPGKHPRP | 0.0205
RRIRNRPPRLPRPRPRPYIWPRP | -0.588
RRIRQRPPRLPRPRPRPYTWPRP | -0.51
RRIRERPPRLPRPRPRPRPNPRP | 0.451
RRIRVRPPRLPRPRPRPDYFPRP | -0.163
RRIRNRPPRLPRPRPRPCKWPRP | -0.339
RRIRPRPPRLPRPRPRPVAYPRP | -0.173
RRIRRRPPRLPRPRPRPFMCPRP | 0.0373
RRIRGRPPRLPRPRPRPQRYPRP | -0.00818

Sequence | shrunken log2 fold change
RRIRWRPPRLPRPRPRPKIIPRP | -0.0886
RRIRQRPPRLPRPRPRPPWAPRP | 0.577
RRIRCRPPRLPRPRPRPLKPPRP | -0.225
RRIRRRPPRLPRPRPRPLQRPRP | 0.969
RRIRSRPPRLPRPRPRPMWWPRP | 0.551
RRIRNRPPRLPRPRPRPVNMPRP | 0.131
RRIRIRPPRLPRPRPRPRCLPRP | -0.228
RRIRWRPPRLPRPRPRPPWQPRP | 0.289
RRIRWRPPRLPRPRPRPVQWPRP | 0.251
RRIRGRPPRLPRPRPRPTIMPRP | 0.365
RRIRYRPPRLPRPRPRPYLAPRP | -0.682
RRIRVRPPRLPRPRPRPMRFPRP | 0.48
RRIRYRPPRLPRPRPRPELLPRP | -0.157
RRIRDRPPRLPRPRPRPCHAPRP | -0.0662
RRIRFRPPRLPRPRPRPRYWPRP | -0.0206
RRIRKRPPRLPRPRPRPTNNPRP | -0.2
RRIRERPPRLPRPRPRPWYIPRP | -0.0599
RRIRIRPPRLPRPRPRPMVGPRP | 0.105
RRIRTRPPRLPRPRPRPRGEPRP | 0.152
RRIRFRPPRLPRPRPRPVLIPRP | -0.17
RRIRMRPPRLPRPRPRPTRFPRP | 0.261
RRIRRRPPRLPRPRPRPGNQPRP | 0.0401
RRIRGRPPRLPRPRPRPMDCPRP | 0.357
RRIRNRPPRLPRPRPRPTNMPRP | -0.753
RRIRYRPPRLPRPRPRPHKTPRP | -0.0572

Sequence | shrunken log2 fold change
RRIRERPPRLPRPRPRPCWSPRP | 0.0767
RRIRRRPPRLPRPRPRPYWDPRP | -0.247
RRIRWRPPRLPRPRPRPYVEPRP | -0.446
RRIRRRPPRLPRPRPRPFMAPRP | 0.113
RRIRARPPRLPRPRPRPYAEPRP | -0.104
RRIRTRPPRLPRPRPRPIAQPRP | -0.0464
RRIRRRPPRLPRPRPRPCARPRP | 0.395
RRIRPRPPRLPRPRPRPVVGPRP | 0.212
RRIRKRPPRLPRPRPRPREFPRP | 0.607
RRIRLRPPRLPRPRPRPFYRPRP | -0.295
RRIRARPPRLPRPRPRPSFWPRP | 0.354
RRIRTRPPRLPRPRPRPTAYPRP | -0.0821
RRIRIRPPRLPRPRPRPRSFPRP | -0.0641
RRIRTRPPRLPRPRPRPGAPPRP | 0.479
RRIRQRPPRLPRPRPRPRHVPRP | -0.14
RRIRYRPPRLPRPRPRPQTRPRP | -0.322
RRIRKRPPRLPRPRPRPDNPPRP | -0.0237
RRIRTRPPRLPRPRPRPIQHPRP | -0.403
RRIRWRPPRLPRPRPRPIEEPRP | 0.0406
RRIRPRPPRLPRPRPRPEEIPRP | -0.00277
RRIRERPPRLPRPRPRPSYCPRP | -0.715
RRIRSRPPRLPRPRPRPIVMPRP | 0.0137
RRIRHRPPRLPRPRPRPTFLPRP | -0.0769
RRIRARPPRLPRPRPRPVQYPRP | 0.0979
RRIRLRPPRLPRPRPRPYTEPRP | -0.284

Sequence | shrunken log2 fold change
RRIRERPPRLPRPRPRPYVYPRP | -0.296
RRIRQRPPRLPRPRPRPWISPRP | -0.0848
RRIRERPPRLPRPRPRPVNAPRP | -0.353
RRIRQRPPRLPRPRPRPCHFPRP | 0.173
RRIRWRPPRLPRPRPRPTMPPRP | 0.256
RRIRRRPPRLPRPRPRPCMAPRP | 0.61
RRIRVRPPRLPRPRPRPANLPRP | -0.163
RRIRGRPPRLPRPRPRPSFDPRP | 0.44
RRIRHRPPRLPRPRPRPPMIPRP | -0.105
RRIRVRPPRLPRPRPRPRFDPRP | 0.048
RRIRRRPPRLPRPRPRPCMNPRP | -0.154
RRIRERPPRLPRPRPRPYDTPRP | -0.00822
RRIRCRPPRLPRPRPRPDGHPRP | -0.00753
RRIRCRPPRLPRPRPRPKQNPRP | 0.136
RRIRLRPPRLPRPRPRPNEKPRP | -0.00697
RRIRGRPPRLPRPRPRPEWLPRP | 1.5
RRIRWRPPRLPRPRPRPYQTPRP | -0.223
RRIRVRPPRLPRPRPRPIPVPRP | -0.363
RRIRCRPPRLPRPRPRPCDSPRP | -0.042
RRIRIRPPRLPRPRPRPDRDPRP | -0.0646
RRIRNRPPRLPRPRPRPCDRPRP | 0.0883
RRIRMRPPRLPRPRPRPYNCPRP | -0.0909
RRIRFRPPRLPRPRPRPGVPPRP | 0.0248
RRIRWRPPRLPRPRPRPKMSPRP | 0.163
RRIRERPPRLPRPRPRPWLLPRP | -1.56
